{"source": "patent US12344637B2", "about": "“Virus-inspired compositions and methods of redirecting preexisting immune responses using the same for treatment of cancer” (priority 2020, dated 2025)", "key": {"[1]": {"conditions": "HPV16 L1 deletion mutants; cited from earlier work"}, "MC38 cells [2]": {"system": "MC38 cells", "assay": "OVA peptide loading in the presence of furin inhibitor", "type": "cell-based, murine", "conditions": "IRC 2.5 μg/mL", "procedure": "(Millipore-Sigma, St. Louis, MO). This furin inhibitor binds irreversibly to the catalytic site of furin, blocking all furin protease activity.\nBriefly, 2×10^5 MC38 cells (murine colon adenocarcinoma, #ENH204-FP, Kerafast, Inc., Boston MA) were seeded in a FACs tube and then incubated with either 0.5 μM, […], or 50 μM furin inhibitor dissolved in DMSO at total final sample volume of 200 μL. Control samples containing no inhibitor were prepared the same way with the same volume equivalent of DMSO. The samples were incubated for fifteen minutes in a tissue culture incubator at 37° C., 5% CO2. Then, 2.5 μg/mL of OVA-conjugated MPV.10.34.d IRC was added to all samples and the samples were incubated in a tissue culture incubator at 37° C., 5% CO2. Samples were then washed twice with 2 to 3 mL FACS buffer and then stained with PE-conjugated-mouse anti-mouse MHC I bounded with OVA (SIINFEKL, SEQ ID NO:95) monoclonal antibody (Biolegend, Cat #141604, San Diego, CA) for 30 minutes at 4° C. Following this, samples were washed once with 3 mL FACS buffer then the cells were resuspended in 250 μL of FACS buffer before being analyzed by a CytoFLEX flow cytometer. (Beckman Coulter Life Sciences, Brea, CA, US)."}, "[3]": {"assay": "ELISA of anti-MPV.10.34.d IRC sera", "type": "binding, mice", "conditions": "serum from 1:100, two-fold dilutions", "procedure": "(§1) Antibodies against wild type MPV were generated as follows: New Zealand white rabbits (n=3) were administered three intra-muscular vaccinations of 50 μg of wild type mouse papillomavirus particles per dose. Rabbits were vaccinated at months 0, 1, and 2. After two weeks post final vaccination, rabbits were bled to obtain the anti-MPV sera. Antibodies against MPV.10.34.d IRC were obtained as follows: naïve 6 to 8 week old C57/BL6 mice (n=10) were injected systemically with two doses of 150 μg of E7-conjugated MPV.10.34.d over a period of 48 hours. After 48 hours, the mice were bled to obtain the anti-MPV.10.34.d IRC sera.\n(§2) Specificity of anti-MPV.10.34.d IRC sera and anti-MPV sera to both MPV.10.34.d capsid backbone and MPV.10.34.d IRC was examined by ELISA. The assays were performed as described in Example 5 with the following differences: serum samples were tested at a 1:100 dilution factor and two-fold serial dilutions. Goat anti-mouse IgG-HRP secondary antibody was used in the ELISA (1:7000). Binding of anti-MPV.10.34.d IRC sera (FIG. 31) and anti-MPV scrum (data not shown) to both MPV.10.34.d capsid backbone (FIG. 31A) and MPV.10.34.d IRC (FIG. 31B) was observed."}, "OVCAR3": {"system": "OVCAR3", "assay": "In vitro cytotoxicity assay with human CMV T cells, OVCAR3", "type": "cell-based", "conditions": "OVCAR3, 2.5 μg/mL, E:T 10:1, 24 hrs", "procedure": "(§3) In these experiments, CD8+ T cell responses to CMV peptides were tested in three different human tumor cell lines, including HCT116, OVCAR3, and MCF7. All three of these human tumor cell lines are HLA-A*0201 positive.\n(§4) In Vitro Cytotoxicity Assays. […], human colon cancer cells, MCF7, human breast cancer cells, and OVCAR3, human ovarian cancer cells (all from ATCC, Manassas, VA, US) were seeded overnight at 0.01 to 0.2×10^6 per well per 100 μL per 96 well plate. The next day (about 20 to 22 hrs later), each cell line was incubated for one hour at 37° C. under the following conditions: (1) CMV peptide at a final concentration of 1 μg/mL (positive control), (2) MPV.10.34.d at a final concentration of 2.5 μg/mL (negative control), (3) CMV-conjugated MPV.10.34.d IRC at a final concentration of 2.5 μg/mL, (4) CMV-conjugated HPV16 IRC at a final concentration of 2.5 μg/mL, and (5) no antigen (negative control). After 1 hour, the cells were washed vigorously with 200 μL of media for three times to remove non-specific binding. […] Cell viability was measured after co-culturing. Cell viability was measured with CELLTITER-GLO® (Promega, Madison, WI, US). […] The amount of ATP generated from tumor cells was quantified according to manufacturer protocols."}, "[4]": {"assay": "Transmission electron microscopy (TEM) size and structure", "type": "physicochemical", "conditions": "purified refolded capsid backbone", "procedure": "TEM analysis was also employed to obtain further visual confirmation of the structure and size of the refolded proteins. Samples (10 μL) were adsorbed to glow discharged (EMS GloQube) carbon coated 400 mesh copper grids (EMS), by floatation for 2 min. Grids were quickly blotted and then rinsed in 3 drops (1 min each) of TBS. Grids were negatively stained in 2 consecutive drops of 1% uranyl acetate with tylose (1% UAT, double filtered, 0.22 μm filter), blotted then quickly aspirated to obtain a thin layer of stain covering the sample. Grids were imaged on a Phillips CM-120 TEM operating at 80 kV with an AMT XR80 CCD (8 megapixel)."}, "pgsA-745 cells": {"system": "pgsA-745 cells", "assay": "In vitro cell binding assay (flow cytometry), HSPG knock-out cells", "type": "cell-based, Chinese hamster", "conditions": "pgsA-745, 1 h 37° C.", "procedure": "(§5) To assess whether IRC bind to tumor cells, an in vitro cell binding assay was conducted. Specifically, both MPV.10.34.d capsid backbones (unconjugated) as well as different conjugated IRC (human CMV pp65, murine E7, and murine OVA peptide) were examined.\n(§6) Briefly, 2×10^5 MC38 cells (murine colon adenocarcinoma, #ENH204-FP Kerafast, Inc., Boston MA) or pgsA-745 cells (Chinese hamster ovary cell mutant deficient in xylosyltransferase (UDP-D-xylose:serine-1,3-D-xylosyltransferase, ATCC CRL-2242) in which heparin sulfate proteoglycan (HSPG) expression is knocked out, were seeded overnight. The next day, the cells were treated with human CMV pp65, murine HPV16 E7, and murine OVA peptide, as well as the MPV.10.34.d capsid backbone for one hour at 37° C. Cells were then washed twice with 2 to 3 mL of a fluorescence activated cell sorting (FACS) buffer (1% bovine serum albumin in PBS) and then stained with 1 mL of rabbit anti-musPsV serum antibodies for 30 minutes at 4° C. Following this, samples were washed once with 3 mL FACS buffer and stained with 0.5 mL of donkey anti-rabbit IgG-PE antibody (Biolegend, San Diego, CA) for 30 min at 4° C. in the dark. Finally, samples were washed once more with 3 mL FACS buffer and then resuspended in […] of FACS buffer before being analyzed by a CytoFLEX flow cytometer (Beckman Coulter Life Sciences, Brea, CA, US)."}, "[5]": {"system": "MPV.A4 monoclonal antibody", "assay": "ELISA with MPV.A4 conformational monoclonal antibody", "type": "binding", "procedure": "The MPV.A4 antibody is a conformational antibody that specifically binds to MPV L1 in the form of T=1 or T=7 capsid backbone structure. This antibody will not bind to denatured or monomeric MPV L1. (Hafenstein et al., 2020, “Atomic Resolution CRYOEM structure of Mouse Papillomavirus,” International Papillomavirus Conference, Jul. 20-24, 2020). To determine whether MPV.10.34.d undergoing the steps in Example 1 or Example 4 yields a T=1 capsid backbone, ELISA was performed on these samples with the MPV.A4 monoclonal antibody.\nSamples from Example 1 and Example 4 of equal concentrations (starting concentration of 1000 ng/well) were subjected to ELISA. To ensure that both soluble and refolded MPV.10.34.d were equally bound to the ELISA plate (Nunc Maxisorp, ThermoFisher Scientific, Waltham, MA, US), both samples were first buffer exchanged into either 50 mM NaPO4, 450 mM NaCl at pH 6 or pH 7. […] Based on this, a total of four sample conditions were two-fold serially diluted and subjected to ELISA with the MPV.A4 monoclonal antibody.\nBriefly, eight different amounts of protein (7.8 ng to 1 μg) for each sample under both pH conditions (into either 50 mM NaPO4, 450 mM NaCl at pH 6 or pH 7) were first added to the ELISA plate and the plate was stored at 4° C. […] The absorbance of the sample plates were read at 450 nm and 620 nm with a plate reader (BioTek, Winooski, VT, US)."}, "ELISA of anti-MPV sera": {"assay": "ELISA of anti-MPV sera", "type": "binding, rabbits", "conditions": "data not shown", "procedure": "as §1, §2"}, "MCF7": {"system": "MCF7", "assay": "In vitro cytotoxicity assay with human CMV T cells, MCF7", "type": "cell-based", "conditions": "MCF7, 2.5 μg/mL, E:T 10:1, 24 hrs", "procedure": "as §3, §4"}, "MC38 cells [6]": {"system": "MC38 cells", "assay": "In vitro cell binding assay (flow cytometry), MC38", "type": "cell-based, murine", "conditions": "MC38, 1 h 37° C.", "procedure": "as §5, §6"}, "HCT116": {"system": "HCT116", "assay": "In vitro cytotoxicity assay with human CMV T cells, HCT116", "type": "cell-based", "conditions": "HCT116, 2.5 μg/mL, E:T 10:1, 24 hrs", "procedure": "as §3, §4"}}}
{"molecule": "ΔN = 0: HPV16 L1 protein without N-terminal deletion (Chen et al., 2000)", "values": [{"measurement": "Apparent Diameter of Assembled Particle (Å)", "setting": "[1]", "value": 600, "unit": "Å"}]}
{"molecule": "decanoyl-RVKR-CMKa [furin inhibitor, reference compound]", "values": [{"measurement": "OVA peptide loading", "setting": "MC38 cells [2]; furin inhibitor 0.5 μM", "value": "prevents OVA-conjugated MPV.10.34.d IRCs from loading OVA epitopes"}, {"measurement": "OVA peptide loading", "setting": "MC38 cells [2]; furin inhibitor 5 μM", "value": "prevents OVA-conjugated MPV.10.34.d IRCs from loading OVA epitopes"}, {"measurement": "OVA peptide loading", "setting": "MC38 cells [2]; furin inhibitor 50 μM", "value": "prevents OVA-conjugated MPV.10.34.d IRCs from loading OVA epitopes"}]}
{"molecule": "MPV.10.34.d capsid backbone (protein) MLYLPPTTPVAKVQSTDEYVYPTSLFCHAHTDRLLTVGHPFFSVIDNDKVTVPKVSGNQYRVFRLKFPDPNKFALPQKDFYDPEKERLVWRLRGLEIGRGGPLGIGTTGHPLFNKLGDTENPNKYQQGSKDNRQNTSMDPKQTQLFIVGCEPPTGEHWDVAKPCGALEKGDCPPIQLVNSVIEDGDMCDIGFGNMNFKELQQDRSGVPLDIVSTRCKWPDFLKMTNEAYGDKMFFFGRREQVYARHFFTRNGSVGEPIPNSVSPSDFYYAPDSTQDQKTLAPSVYFGTPSGSLVSSDGQLFNRPFWLQRAQGNNNGVCWHNELFVTVVDNTRNTNFTISQQTNTPNPDTYDSTNFKNYLRHVEQFELSLIAQLCKVPLDPGVLAHINTMNPTILENWNLGFVPPKEREDPYKGLIFWEVDLTERFSQDLDQFALGRKFLYQ", "values": [{"measurement": "binding of anti-MPV.10.34.d IRC sera (ELISA)", "setting": "[3]", "value": "Binding"}, {"measurement": "binding of anti-MPV.10.34.d IRC sera (ELISA)", "setting": "[3]; listed as MPV.10.34.d capsid backbones", "value": "specifically recognize and bind"}, {"measurement": "redirection of CMV pp65-specific CD8+ T-cells to kill tumor cells", "setting": "OVCAR3", "value": "no background tumor killing"}, {"measurement": "diameter (TEM)", "setting": "[4]", "value": "~30", "unit": "nm"}, {"measurement": "binding to cells lacking HSPG expression", "setting": "pgsA-745 cells", "value": "no binding"}, {"measurement": "recognition by MPV.A4 conformational monoclonal antibody", "setting": "[5]; refolded from IBs (Example 1)", "value": "recognized"}, {"measurement": "recognition by MPV.A4 conformational monoclonal antibody", "setting": "[5]; soluble (Example 4), pH 6 or pH 7", "value": "recognized"}, {"measurement": "binding of anti-MPV serum (ELISA)", "setting": "ELISA of anti-MPV sera", "value": "Binding"}, {"measurement": "redirection of CMV pp65-specific CD8+ T-cells to kill tumor cells", "setting": "MCF7", "value": "no background tumor killing"}, {"measurement": "binding to tumor cells (peak shift)", "setting": "MC38 cells [6]", "value": "exhibited specificity for tumor cells"}, {"measurement": "redirection of CMV pp65-specific CD8+ T-cells to kill tumor cells", "setting": "HCT116", "value": "no background tumor killing"}]}
